From the supplement of paper PMC9112550, “Optimization of the antimicrobial peptide Bac7 by deep mutational scanning” (BMC Biology, 2022)

Each sequence was assayed on Escherichia coli TOP10 (assay: shrunken log2 fold change of peptide-encoding DNA abundance (4.5 h post-induction vs induction); higher = less antimicrobial activity (less host growth inhibition)). Details: time post-induction: 4.5 h; library: site-saturation at positions 5, 18, 19, 20.
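Further: peptides expressed intracellularly from a pBAD plasmid library in pooled LB shake-flask culture, induced with 0.3% L-arabinose, DNA abundance read by NGS, three biological replicates, DESeq2 with apeglm shrinkage.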

Sequence	shrunken log2 fold change
RRIRDRPPRLPRPRPRPGKWPRP	-0.00965
RRIRPRPPRLPRPRPRPQAWPRP	0.179
RRIRARPPRLPRPRPRPTGDPRP	0.604
RRIRFRPPRLPRPRPRPMCVPRP	-0.405
RRIRWRPPRLPRPRPRPEFEPRP	0.0113
RRIRARPPRLPRPRPRPRFLPRP	0.371
RRIRHRPPRLPRPRPRPHYKPRP	-0.973
RRIRQRPPRLPRPRPRPRCHPRP	0.118
RRIRKRPPRLPRPRPRPDTIPRP	0.163
RRIRMRPPRLPRPRPRPFWEPRP	0.0748
RRIRSRPPRLPRPRPRPFKHPRP	-0.195
RRIRMRPPRLPRPRPRPSDRPRP	0.0714
RRIRWRPPRLPRPRPRPTSWPRP	0.249
RRIRGRPPRLPRPRPRPQHWPRP	0.165
RRIRGRPPRLPRPRPRPKSVPRP	0.591
RRIRLRPPRLPRPRPRPHMQPRP	-0.556
RRIRSRPPRLPRPRPRPLAKPRP	0.358
RRIRLRPPRLPRPRPRPELKPRP	0.0568
RRIRLRPPRLPRPRPRPQRCPRP	0.487
RRIRCRPPRLPRPRPRPICLPRP	-0.127
RRIRQRPPRLPRPRPRPQANPRP	-0.165
RRIRNRPPRLPRPRPRPNCAPRP	-0.123
RRIRRRPPRLPRPRPRPPRMPRP	0.94
RRIRRRPPRLPRPRPRPLWVPRP	0.382
RRIRTRPPRLPRPRPRPKTDPRP	-0.158

Sequence	shrunken log2 fold change
RRIRERPPRLPRPRPRPALDPRP	-0.0626
RRIRFRPPRLPRPRPRPVHEPRP	-0.0618
RRIRPRPPRLPRPRPRPACGPRP	0.839
RRIRVRPPRLPRPRPRPVDLPRP	0.0988
RRIRERPPRLPRPRPRPNFKPRP	-0.181
RRIRARPPRLPRPRPRPHCWPRP	0.17
RRIRYRPPRLPRPRPRPRALPRP	0.0114
RRIRRRPPRLPRPRPRPAMSPRP	0.157
RRIRSRPPRLPRPRPRPLNKPRP	-0.343
RRIRERPPRLPRPRPRPIFIPRP	-0.508
RRIRPRPPRLPRPRPRPEYPPRP	0.045
RRIRIRPPRLPRPRPRPCDIPRP	-0.416
RRIRHRPPRLPRPRPRPCDCPRP	-0.138
RRIRYRPPRLPRPRPRPCWQPRP	0.013
RRIRQRPPRLPRPRPRPHVEPRP	-0.00703
RRIRHRPPRLPRPRPRPHMFPRP	-0.358
RRIRCRPPRLPRPRPRPALTPRP	0.224
RRIRMRPPRLPRPRPRPPCDPRP	0.506
RRIRKRPPRLPRPRPRPWVGPRP	0.0422
RRIRIRPPRLPRPRPRPLVAPRP	-0.0566
RRIRKRPPRLPRPRPRPAFAPRP	0.647
RRIRKRPPRLPRPRPRPEQFPRP	-0.0303
RRIRRRPPRLPRPRPRPEVLPRP	0.211
RRIRYRPPRLPRPRPRPVRHPRP	-0.245
RRIRHRPPRLPRPRPRPFCTPRP	-0.294

Sequence	shrunken log2 fold change
RRIRWRPPRLPRPRPRPDCGPRP	0.885
RRIRSRPPRLPRPRPRPNKSPRP	-0.266
RRIRGRPPRLPRPRPRPYQIPRP	-0.118
RRIRDRPPRLPRPRPRPHDHPRP	0.00042
RRIRDRPPRLPRPRPRPTECPRP	-0.0183
RRIRGRPPRLPRPRPRPEKAPRP	0.144
RRIRTRPPRLPRPRPRPEINPRP	-0.106
RRIRLRPPRLPRPRPRPINDPRP	-0.35
RRIRMRPPRLPRPRPRPKNHPRP	0.412
RRIRDRPPRLPRPRPRPYKPPRP	-0.0448
RRIRSRPPRLPRPRPRPYFIPRP	-1.06
RRIRTRPPRLPRPRPRPGFTPRP	-0.0298
RRIRTRPPRLPRPRPRPYRKPRP	-0.0329
RRIRCRPPRLPRPRPRPHLIPRP	0.282
RRIRMRPPRLPRPRPRPLSEPRP	0.511
RRIRERPPRLPRPRPRPCTDPRP	-0.169
RRIRCRPPRLPRPRPRPFHMPRP	-0.36
RRIRIRPPRLPRPRPRPWEQPRP	0.107
RRIRGRPPRLPRPRPRPMLVPRP	0.418
RRIRIRPPRLPRPRPRPVDQPRP	-0.0969
RRIRKRPPRLPRPRPRPSIIPRP	-0.221
RRIRRRPPRLPRPRPRPCWIPRP	0.063
RRIRFRPPRLPRPRPRPDLQPRP	-0.0778
RRIRRRPPRLPRPRPRPTYTPRP	-0.214
RRIRMRPPRLPRPRPRPDMTPRP	-0.05
